Source: FireProtDB (doi:10.1016/j.bpc.2008.09.020)

B1: Cytochrome c-551, P00099 (parent)
chain: MKPYALLSLLATGTLLAQGAWAEDPEVLFKNKGCVACHAIDTKMVGPAYKDVAAKFAGQAGAEAELAQRIKNGSQGVWGPIPMPPNAVSDDEAQTLAKWVLSQK

Variants of: B1
Details: Pseudomonas aeruginosa (strain ATCC 15692 / DSM 22644 / CIP 104116 / JCM 14847 / LMG 12228 / 1C / PRS 101 / PAO1), 25 °C, GdnHCl, CD, Sodium acetate 20 mM, structure 451C, whole UniProt chain shown

| Variant | ddG of mutation (higher = less stable) (pH 3.6) [kcal/mol] | denaturant m value (pH 3.6) [kcal/mol/M] | denaturant midpoint (higher = more stable) (pH 3.6) [M] | unfolding free energy (pH 3.6) [kcal/mol] | ddG of mutation (higher = less stable) (pH 5) [kcal/mol] | denaturant m value (pH 5) [kcal/mol/M] | denaturant midpoint (higher = more stable) (pH 5) [M] | unfolding free energy (pH 5) [kcal/mol] |
| --- | --- | --- | --- | --- | --- | --- | --- | --- |
| MKPYALLSLLATGTLLAQGAWAEDPEVLAKNKGCMACHAIDTKMVGPAYKDVAAKFAGQAGAEAELAQRIKNGSQGVWGPIPMPPNAVSDDEAQTLAKWVLSQK [F29A V35M] | -1.45 | 2.56 | 2.18 | 5.58 | -1.92 | 2.57 | 2.87 | 7.37 |
| MKPYALLSLLATGTLLAQGAWAEDPEVLAKNKGCMACHAIDTKMVGPAYKDVAAKYAGQAGAEAYLAQRIKNGSQGVWGPIPMPPNAVSDDEAQTLAKWVLSQK [F29A V35M F56Y E65Y] | -2.39 | 2.52 | 2.59 | 6.52 | -3.76 | 2.43 | 3.78 | 9.21 |
| MKPYALLSLLATGTLLAQGAWAEDPEVLAKNKGCMACHAIDTKMVGPAYKDVAAKYAGQAGAEAYLAQRIKNGSQGVWGPIPMPPNAVSDDEAQTLAKWILSQK [F29A V35M F56Y E65Y V100I] | -3.34 | 2.54 | 2.95 | 7.48 | -4.78 | 2.44 | 4.2 | 10.2 |
| MKPYALLSLLATGTLLAQGAWAEDPEVLAKNKGCMACHAIDTKMVGPAYKDVAAKFAGQAGAEAELAQRIKNGSQGVWGPIPMPPNAVSDDEAQTLAKWILSQK [F29A V35M V100I] | -1.9 | 2.45 | 2.46 | 6.04 | -2.29 | 2.47 | 3.13 | 7.74 |
| MKPYALLSLLATGTLLAQGAWAEDPEVLFKNKGCVACHAIDTKMVGPAYKDVAAKYAGQAGAEAELAQRIKNGSQGVWGPIPMPPNAVSDDEAQTLAKWVLSQK [F56Y] | -0.28 | 2.76 | 1.6 | 4.41 | -1.33 | 2.67 | 2.54 | 6.78 |
| MKPYALLSLLATGTLLAQGAWAEDPEVLFKNKGCVACHAIDTKMVGPAYKDVAAKYAGQAGAEAYLAQRIKNGSQGVWGPIPMPPNAVSDDEAQTLAKWVLSQK [F56Y E65Y] | -0.72 | 2.7 | 1.8 | 4.85 | -2.27 | 2.68 | 2.88 | 7.71 |
| MKPYALLSLLATGTLLAQGAWAEDPEVLFKNKGCVACHAIDTKMVGPAYKDVAAKYAGQAGAEAYLAQRIKNGSQGVWGPIPMPPNAVSDDEAQTLAKWILSQK [F56Y E65Y V100I] | -1.63 | 2.57 | 2.25 | 5.77 | -2.95 | 2.44 | 3.44 | 8.39 |
| MKPYALLSLLATGTLLAQGAWAEDPEVLFKNKGCVACHAIDTKMVGPAYKDVAAKFAGQAGAEAYLAQRIKNGSQGVWGPIPMPPNAVSDDEAQTLAKWVLSQK [E65Y] | -0.09 | 2.88 | 1.46 | 4.23 | -1.13 | 3.1 | 2.12 | 6.57 |
| MKPYALLSLLATGTLLAQGAWAEDPEVLFKNKGCVACHAIDTKMVGPAYKDVAAKFAGQAGAEAELAQRIKNGSQGVWGPIPMPPNAVSDDEAQTLAKWILSQK [V100I] | -1.05 | 2.74 | 1.89 | 5.18 | -1.49 | 2.74 | 2.53 | 6.93 |
